The text below walks through data of patent publication US20210040204A1 (INSERM INSTITUT NATIONAL DE LA SANT ET DE LA RECHERCHE M …, published 2021).

Experiment [1] concerns the target T1, human Claudin-1 (human, UniProt O95832 1-211).
T1 construct: whole, on cells; also called CLDN1; human CLDN1
T1 sequence (looked up): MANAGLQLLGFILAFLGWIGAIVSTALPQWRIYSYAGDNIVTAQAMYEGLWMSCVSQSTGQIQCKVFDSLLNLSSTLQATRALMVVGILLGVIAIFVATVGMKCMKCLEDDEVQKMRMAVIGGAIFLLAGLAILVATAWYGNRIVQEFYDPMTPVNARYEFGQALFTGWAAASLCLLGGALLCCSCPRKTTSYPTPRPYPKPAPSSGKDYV
In words: flow cytometry on Huh7.5.1 and HepG2 cells with surface CLDN1 (FIG. 2A). The procedure:
(§1) FIG. 2. […] (A) Flow cytometry analysis of the binding of humanized OM-7D3-B3 anti-CLDN1 mAbs (20 μg/mL) to cell lines. […] Binding is expressed as delta median fluorescence intensity (ΔMFI). […] After 48 h, cells were stained with isotype control, rat OM-7D3-B3 or humanized H3L3 antibody (20 μg/mL). The ΔMFI from one experiment performed in duplicate are shown. […] Huh 7.5.1 cells were incubated with different mAbs (25 μg/mL) at 37° C. for 1 h prior to infection with HCVcc. Infectivity was assessed after 72 h by measuring luciferase activity and is expressed as log relative luciferase units (RLU). (D) Humanized anti-CLDN1 mAbs inhibit entry of HCVpp bearing envelope glycoproteins of strains H77 (genotype 1a) and HCV-J (genotype 1b). PHH were pre-treated with the humanized antibodies (20 μg/mL) for 1 h at 37° C. prior to infection with HCVpp. Infectivity was measured by luciferase activity after 72 h and is expressed as RLU. Graphs show results from one experiment performed in duplicate (A, B, D) or in triplicate (C).
Flow cytometry. […] Cells were washed and incubated with phycoerythrin (PE)-conjugated species-specific secondary antibodies at 4° C. for 45 min to allow detection of binding. Cells were subsequently washed and fixed with 2% paraformaldehyde (PFA) prior to analysis by flow cytometry using a BD LSRII flow cytometer. Net delta median fluorescence intensities (ΔMFI) were obtained after subtracting the background fluorescence with PBS. […] After 48 h, binding of antibodies was assessed as described above.
A general note: Flow cytometry measures light scatter and fluorescence of single cells or particles in a stream.

Experiment [2] addresses T1, human Claudin-1. The experiment is described as follows: not described (data not shown).
In experiment [3] the target is T1, human Claudin-1. In words: flow cytometry, 20 µg/mL, 293T cells transfected with CLDN1-expressing pcDNA3.1 (FIG. 2B). As to the method: as §1
(§2) Flow cytometry. […] Cells were washed and incubated with phycoerythrin (PE)-conjugated species-specific secondary antibodies at 4° C. for 45 min to allow detection of binding. […] Net delta median fluorescence intensities (ΔMFI) were obtained after subtracting the background fluorescence with PBS. […] After 48 h, binding of antibodies was assessed as described above.

Experiment [4] deals with T1, human Claudin-1. The experiment is described as follows: flow cytometry, 20 µg/mL, Huh7.5.1 and HepG2 cells (FIG. 2A). The procedure:
as §1, §2

B1: rat anti-CLDN1 mAb OM-7D3-B3 (antibody, V domains shown)
VH: EVQLVESGGGLVQPGRSLKLSCLGSGFSFSSYGMNWIRQAPGKGLEWVASISPSGSYFYYADSVKGRFTISRENAKNTLYLQMTSLRAEDTALYYCARLPGFNPPFDHWGQGVVVTVSS
VL: NTVMTQSPTSMFMSVGDRVTMNCKASQNVGGNVDWYQWKPGQSPKLLMYGASNRYTGVPDRFRGSGSGTDFTLTISNMQTEDLAVYYCLQYKNNPWTFGGGTKVELK
notes: Hybridoma antibody, rat IgG2b with rat kappa light chain; also called rat OM-7D3-B3; parental rat antibody
Take B1: in the experiment with human Claudin-1 [1], the binding result is on record as “binds”.

B2: recombinant full-length IgG2b (parent isotype) antibody with the VH and VL of rat OM-7D3-B3 (antibody, V domains shown)
VH: EVQLVESGGGLVQPGRSLKLSCLGSGFSFSSYGMNWIRQAPGKGLEWVASISPSGSYFYYADSVKGRFTISRENAKNTLYLQMTSLRAEDTALYYCARLPGFNPPFDHWGQGVVVTVSS
VL: NTVMTQSPTSMFMSVGDRVTMNCKASQNVGGNVDWYQWKPGQSPKLLMYGASNRYTGVPDRFRGSGSGTDFTLTISNMQTEDLAVYYCLQYKNNPWTFGGGTKVELK
notes: IgG2b as the parent; also called recombinant full-length IgG2b antibody
B2: in the experiment with human Claudin-1 [2], the binding result was “binds”.

B3: humanized anti-CLDN1 mAb H2L1 (antibody, V domains shown)
VH: QVQLVESGGGVVQPGRSLRLSCAASGFSFSSYGMNWVRQAPGKGLEWVTSISPSGSYFYYADSVKGRFTISRDNSKNTLYLQMNSLRAEDTAIYYCARLPGFNPPFDHWGQGTLVTVSS
VL: DIQMTQSPATLSVSPGERATLSCKASQNVGGNVDWYQWKPGQAPRLLIYGASNRYTGIPARFRGSGSGTEFTLTISSLQSEDFAVYYCLQYKNNPWTFGQGTKVEIK
notes: Full-length antibody made in CHO cells; variable domains fused to the constant domains of human IgG4 heavy and human kappa light chains
As to B3, the binding result with human Claudin-1 [1] is on record as “binds”.

B4: humanized anti-CLDN1 mAb H2L2 (antibody, V domains shown)
VH: QVQLVESGGGVVQPGRSLRLSCAASGFSFSSYGMNWVRQAPGKGLEWVTSISPSGSYFYYADSVKGRFTISRDNSKNTLYLQMNSLRAEDTAIYYCARLPGFNPPFDHWGQGTLVTVSS
VL: DIQMTQSPSSLSASVGDRVTITCKASQNVGGNVDWYQWKPGKAPKLLIYGASNRYTGVPSRFRGSGSGTDFTLTISSLQPEDVATYYCLQYKNNPWTFGQGTKVEIK
notes: as for B3
Regarding B4, in the experiment with human Claudin-1 [1], the binding result was “binds”.

B5: humanized anti-CLDN1 mAb H3L2 (antibody, V domains shown)
VH: QVQLVESGGGVVQPGRSLRLSCLGSGFSFSSYGMNWVRQAPGKGLEWVASISPSGSYFYYADSVKGRFTISRDNSKNTLYLQMTSLRAEDTAIYYCARLPGFNPPFDHWGQGTLVTVSS
VL: DIQMTQSPSSLSASVGDRVTITCKASQNVGGNVDWYQWKPGKAPKLLIYGASNRYTGVPSRFRGSGSGTDFTLTISSLQPEDVATYYCLQYKNNPWTFGQGTKVEIK
notes: as for B3
On to B5, for which the binding result with human Claudin-1 [1] is listed as “binds”.

B6: humanized anti-CLDN1 mAb H2L3 (antibody, V domains shown)
VH: QVQLVESGGGVVQPGRSLRLSCAASGFSFSSYGMNWVRQAPGKGLEWVTSISPSGSYFYYADSVKGRFTISRDNSKNTLYLQMNSLRAEDTAIYYCARLPGFNPPFDHWGQGTLVTVSS
VL: DIQMTQSPSSLSASVGDRVTITCKASQNVGGNVDWYQWKPGKAPKLLIYGASNRYTGVPDRFRGSGSGTDFTLTISSLQPEDVATYYCLQYKNNPWTFGGGTKVEIK
notes: as for B3
Consider B6, for which the binding result with human Claudin-1 [1] is on record as “binds”.

B7: humanized anti-CLDN1 mAb H1L2 (antibody, V domains shown)
VH: EVQLVESGGGLVKPGGSLRLSCAASGFSFSSYGMNWVRQAPGKGLEWVSSISPSGSYFYYADSVKGRFTISRDNAKNSLYLQMNSLRAEDTAVYYCARLPGFNPPFDHWGQGTLVTVSS
VL: DIQMTQSPSSLSASVGDRVTITCKASQNVGGNVDWYQWKPGKAPKLLIYGASNRYTGVPSRFRGSGSGTDFTLTISSLQPEDVATYYCLQYKNNPWTFGQGTKVEIK
notes: as for B3
As to B7, the binding result in the experiment with human Claudin-1 [1] is listed as “binds”.

B8: humanized anti-CLDN1 mAb H3L3 (antibody, V domains shown)
VH: QVQLVESGGGVVQPGRSLRLSCLGSGFSFSSYGMNWVRQAPGKGLEWVASISPSGSYFYYADSVKGRFTISRDNSKNTLYLQMTSLRAEDTAIYYCARLPGFNPPFDHWGQGTLVTVSS
VL: DIQMTQSPSSLSASVGDRVTITCKASQNVGGNVDWYQWKPGKAPKLLIYGASNRYTGVPDRFRGSGSGTDFTLTISSLQPEDVATYYCLQYKNNPWTFGGGTKVEIK
notes: Full-length antibody made in CHO cells; variable domains fused to the constant domains of human IgG4 heavy and human kappa light chains; also called humanized anti-CLDN1 antibody clone H3L3; humanized CLDN1 mAb (H3L3)
Take B8: the binding result with human Claudin-1 [3] is on record as “binds”.

B9: humanized anti-CLDN1 mAb H1L3 (antibody, V domains shown)
VH: EVQLVESGGGLVKPGGSLRLSCAASGFSFSSYGMNWVRQAPGKGLEWVSSISPSGSYFYYADSVKGRFTISRDNAKNSLYLQMNSLRAEDTAVYYCARLPGFNPPFDHWGQGTLVTVSS
VL: DIQMTQSPSSLSASVGDRVTITCKASQNVGGNVDWYQWKPGKAPKLLIYGASNRYTGVPDRFRGSGSGTDFTLTISSLQPEDVATYYCLQYKNNPWTFGGGTKVEIK
notes: as for B3
B9: the binding result with human Claudin-1 [1] is given as “binds”.

B10: humanized anti-CLDN1 mAb H3L1 (antibody, V domains shown)
VH: QVQLVESGGGVVQPGRSLRLSCLGSGFSFSSYGMNWVRQAPGKGLEWVASISPSGSYFYYADSVKGRFTISRDNSKNTLYLQMTSLRAEDTAIYYCARLPGFNPPFDHWGQGTLVTVSS
VL: DIQMTQSPATLSVSPGERATLSCKASQNVGGNVDWYQWKPGQAPRLLIYGASNRYTGIPARFRGSGSGTEFTLTISSLQSEDFAVYYCLQYKNNPWTFGQGTKVEIK
notes: as for B3
With B10, in the experiment with human Claudin-1 [1], the binding result is “binds”.

B11: humanized anti-CLDN1 mAb H1L1 (antibody, V domains shown)
VH: EVQLVESGGGLVKPGGSLRLSCAASGFSFSSYGMNWVRQAPGKGLEWVSSISPSGSYFYYADSVKGRFTISRDNAKNSLYLQMNSLRAEDTAVYYCARLPGFNPPFDHWGQGTLVTVSS
VL: DIQMTQSPATLSVSPGERATLSCKASQNVGGNVDWYQWKPGQAPRLLIYGASNRYTGIPARFRGSGSGTEFTLTISSLQSEDFAVYYCLQYKNNPWTFGQGTKVEIK
notes: as for B3
Consider B11, for which the binding result in the experiment with human Claudin-1 [4] was “binds”.
